# Measurements reported in article PMC11479587, “Early steps of protein disaggregation by Hsp70 chaperone and class B J-domain proteins are shaped by Hsp110” (eLife, 2024).
# T1: His6-SUMO-Sse1 (yeast (S. cerevisiae), UniProt P32589 1-693)
# T1 construct: Sse1, yeast Hsp110 nucleotide exchange factor, Uniprot ID P32589; Held on the Ni-NTA BLI sensor through the His6-SUMO tag; also called His-Sse1; His-See1; source: recombinant, purified as Sse1 with the proteolytic cleavage of the tag omitted
# T1 sequence (looked up): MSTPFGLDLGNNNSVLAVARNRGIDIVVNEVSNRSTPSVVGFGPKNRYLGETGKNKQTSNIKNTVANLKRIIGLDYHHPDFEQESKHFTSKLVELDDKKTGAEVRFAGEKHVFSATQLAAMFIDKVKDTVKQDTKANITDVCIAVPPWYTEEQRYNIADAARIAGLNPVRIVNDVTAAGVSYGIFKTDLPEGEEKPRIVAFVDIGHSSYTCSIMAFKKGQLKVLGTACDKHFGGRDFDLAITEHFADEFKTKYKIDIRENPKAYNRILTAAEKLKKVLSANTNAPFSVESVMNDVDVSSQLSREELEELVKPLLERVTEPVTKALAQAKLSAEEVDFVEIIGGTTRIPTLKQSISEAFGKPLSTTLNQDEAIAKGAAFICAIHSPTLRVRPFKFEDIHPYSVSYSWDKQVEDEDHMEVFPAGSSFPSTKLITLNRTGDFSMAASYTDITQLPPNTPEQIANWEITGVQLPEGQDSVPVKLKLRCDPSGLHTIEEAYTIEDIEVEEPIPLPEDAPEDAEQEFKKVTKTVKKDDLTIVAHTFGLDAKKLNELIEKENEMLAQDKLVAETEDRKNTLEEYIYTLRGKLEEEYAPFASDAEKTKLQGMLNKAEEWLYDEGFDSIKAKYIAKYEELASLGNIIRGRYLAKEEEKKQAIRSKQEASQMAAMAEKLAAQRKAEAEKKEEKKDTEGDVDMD
# B1: Ssa1 (natural protein)
# chain: not shown
# notes: Ssa1, yeast Hsp70 chaperone, Uniprot ID P10591; also called Hsp70; yeast Hsp70; source: recombinant, expressed from pCA533-His6-SUMO-SSA1, purified using published protocols (Andréasson et al., 2008a)
# B2: Sse1 (natural protein, yeast (S. cerevisiae), UniProt P32589 1-693, looked up)
# chain: MSTPFGLDLGNNNSVLAVARNRGIDIVVNEVSNRSTPSVVGFGPKNRYLGETGKNKQTSNIKNTVANLKRIIGLDYHHPDFEQESKHFTSKLVELDDKKTGAEVRFAGEKHVFSATQLAAMFIDKVKDTVKQDTKANITDVCIAVPPWYTEEQRYNIADAARIAGLNPVRIVNDVTAAGVSYGIFKTDLPEGEEKPRIVAFVDIGHSSYTCSIMAFKKGQLKVLGTACDKHFGGRDFDLAITEHFADEFKTKYKIDIRENPKAYNRILTAAEKLKKVLSANTNAPFSVESVMNDVDVSSQLSREELEELVKPLLERVTEPVTKALAQAKLSAEEVDFVEIIGGTTRIPTLKQSISEAFGKPLSTTLNQDEAIAKGAAFICAIHSPTLRVRPFKFEDIHPYSVSYSWDKQVEDEDHMEVFPAGSSFPSTKLITLNRTGDFSMAASYTDITQLPPNTPEQIANWEITGVQLPEGQDSVPVKLKLRCDPSGLHTIEEAYTIEDIEVEEPIPLPEDAPEDAEQEFKKVTKTVKKDDLTIVAHTFGLDAKKLNELIEKENEMLAQDKLVAETEDRKNTLEEYIYTLRGKLEEEYAPFASDAEKTKLQGMLNKAEEWLYDEGFDSIKAKYIAKYEELASLGNIIRGRYLAKEEEKKQAIRSKQEASQMAAMAEKLAAQRKAEAEKKEEKKDTEGDVDMD
# Experiments:
# [1] = molecular target: B2; assay: BLI; His-Sis1 (0.4 µM, to saturation) on the Ni-NTA sensor through the His6-SUMO tag; 1 µM Ssa1 with increasing concentrations of Sse1 or Sse1-2; buffer A with 5 mM ATP and 2 mM DTT; details: both partners purified
# [2] = molecular target: T1, His6-SUMO-Sse1; assay: BLI; His-Sse1 (2.5 µM) or His-Sse1-2 (1 µM) on the Ni-NTA sensor through the His6-SUMO tag; Ssa1 at 32-16,000 nM; level of binding fitted with a one site-specific binding model; buffer A with 5 mM ATP and 2 mM DTT; details: both partners purified
# [3] = molecular target: B1; assay: cell-based or functional assay
# [4] = molecular target: B1; assay: BLI; His-Sis1 (0.4 µM, to saturation) on the Ni-NTA sensor through the His6-SUMO tag; 1 µM Ssa1 with increasing concentrations of Sse1 or Sse1-2; buffer A with 5 mM ATP and 2 mM DTT; details: both partners purified
# Sequence of Ssa1 (P10591 whole entry): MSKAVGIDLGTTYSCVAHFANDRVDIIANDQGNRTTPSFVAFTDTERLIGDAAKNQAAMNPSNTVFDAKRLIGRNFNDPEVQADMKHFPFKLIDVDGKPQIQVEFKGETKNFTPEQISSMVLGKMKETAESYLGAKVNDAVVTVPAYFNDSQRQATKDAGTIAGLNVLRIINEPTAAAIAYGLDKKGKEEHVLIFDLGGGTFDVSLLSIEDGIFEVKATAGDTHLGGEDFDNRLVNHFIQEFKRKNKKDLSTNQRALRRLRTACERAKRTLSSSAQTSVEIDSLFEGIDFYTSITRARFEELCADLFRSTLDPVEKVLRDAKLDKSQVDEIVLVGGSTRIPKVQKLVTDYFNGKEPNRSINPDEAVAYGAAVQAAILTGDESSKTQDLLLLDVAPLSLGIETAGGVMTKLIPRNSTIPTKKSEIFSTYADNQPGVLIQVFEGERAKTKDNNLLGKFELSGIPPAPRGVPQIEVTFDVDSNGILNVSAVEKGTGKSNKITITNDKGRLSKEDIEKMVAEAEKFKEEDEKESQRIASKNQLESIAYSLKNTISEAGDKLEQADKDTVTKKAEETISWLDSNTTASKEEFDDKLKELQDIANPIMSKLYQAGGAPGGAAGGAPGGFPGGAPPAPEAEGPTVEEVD
binder,measurement,setting,value
B1,binding result,[1],binds
same,binding result,[2],binds
B2,"inhibition of the refolding of aggregated luciferase by Ssa1-Ydj1 (1 µM each), titration of Sse1, activity after 1 hr",[3],0.1 µM
"Sis1 immobilised through the His6-SUMO tag (natural protein, yeast (S. cerevisiae), UniProt P25294 1-352, looked up, Sis1, yeast class B J-domain protein, Uniprot ID P25294; also called His-Sis1; class B JDP) MVKETKLYDLLGVSPSANEQELKKGYRKAALKYHPDKPTGDTEKFKEISEAFEILNDPQKREIYDQYGLEAARSGGPSFGPGGPGGAGGAGGFPGGAGGFSGGHAFSNEDAFNIFSQFFGGSSPFGGADDSGFSFSSYPSGGGAGMGGMPGGMGGMHGGMGGMPGGFRSASSSPTYPEEETVQVNLPVSLEDLFVGKKKSFKIGRKGPHGASEKTQIDIQLKPGWKAGTKITYKNQGDYNPQTGRRKTLQFVIQEKSHPNFKRDGDDLIYTLPLSFKESLLGFSKTIQTIDGRTLPLSRVQPVQPSQTSTYPGQGMPTPKNPSQRGNLIVKYKVDYPISLNDAQKRAIDENF",binding result,[4],binds
